Laboratory results published in patent publication US20240101668A1 (WUGEN, published 2024).
Positions count from the first letter of the chain named.

B1: Polypeptide No. 246 (scFv, V domains shown)
VH: QVQLVQSGAEVKKPGSSVKVSCKASGGTFTSYFMHWVRQAPGQGLEWMGGIIPMFGAPVYAQDFQGRVTITADESTSTAYMELSSLRSEDTAVYYCAAGLDFWSGPDNYYMDVWGKGTTVTVSS
VL: DIQMTQSPSSLSASVGDRVTITCQATQDISNYLNWYQQKPGKAPKLLIYGASNLPSGVPSRFSGSGSGTDFTLTISSLQPEDFATYYCQQSYSDLLTFGPGTKVDIKR
notes: scFv
B2: Polypeptide No. 247 (scFv, V domains shown)
VH: QVQLVQSGAEVKKPGASVKVSCKASGGTLMSYAISWVRQAPGQGLEWMGIINPRGGTTRYAQKFQGRVTMTRDTSTSTVYMELSSLRSEDTAVYYCARSEDSGYDYLDYWGQGTLVTVSS
VL: EIVMTQSPATLSVSPGERATLSCRGSQSISGNYLAWYQQKPGQAPRLLIYDTSARAAGIPARFSGSGSGTEFTLTISSLQSEDFAVYYCQQYNSYPLTFGGGTKVEIKR
notes: scFv
B3: Polypeptide No. 248 (scFv, V domains shown)
VH: QVQLVQSGAEVKKPGASVKVSCKASGYTFTGYYMHWVRQAPGQGLEWMGVINPNGGSISYAQKFQGRVTMTRDTSTSTVYMELSSLRSEDTAVYYCAREGWFGEDGMDVWGQGTTVTVSS
VL: DIQMTQSPSSLSASVGDRVTITCRASQDLDRYLAWYQQKPGKAPKLLIYAASSLQTGVPSRFSGSGSGTDFTLTISSLQPEDFATYYCQQYYSTPYTFGQGTKLEIKR
notes: scFv
B4: Polypeptide No. 249 (scFv, V domains shown)
VH: QVQLVQSGAEVKKPGASVKVSCKASGYTFTSDGISWVRQAPGQGLEWMGWMNPNSGNAGYAQKFQGRVTMTRDTSTSTVYMELSSLRSEDTAVYYCATAVAGTDAFDIWGQGTMVTVSS
VL: EIVMTQSPATLSVSPGERATLSCRASQSIGNNLKAWYQQKPGQAPRLLIYDTSAHTTGIPARFSGSGSGTEFTLTISSLQSEDFAVYYCQHYGNSLTFGQGTKVEIK
notes: scFv
B5: Polypeptide No. 253 (scFv, V domains shown)
VH: QVQLVQSGAEVKKPGSSVKVSCKASGYTFTTYFMHWVRQAPGQGLEWMGGIVPVFGTTKYAQKFQGRVTITADESTSTAYMELSSLRSEDTAVYYCASSAVGWFDPWGQGTLVTVSS
VL: B3 VL with L29I, D30S, Y32W, T56S, Y92D, S93N, T94F, Y96L, Q100G
notes: scFv
B6: Polypeptide No. 254 (scFv, V domains shown)
VH: QVQLVQSGAEVKKPGASVKVSCKASGYTFTSHYMHWVRQAPGQGLEWMGWISPYNGNTNYAQKLQGRVTMTRDTSTSTVYMELSSLRSEDTAVYYCARGESNSGWINFDYWGQGTLVTVSS
VL: EIVMTQSPATLSVSPGERATLSCRASQSVSSSSLAWYQQKPGQAPRLLIYDTSTRATGIPARFSGSGSGTEFTLTISSLQSEDFAVYYCQQYGTSPITFGQGTRLEIKR
notes: scFv
B7: Polypeptide No. 256 (scFv, V domains shown)
VH: QVQLVQSGAEVKKPGASVKVSCKASGYTFATYYLHWVRQAPGQGLEWMGMINPSGGSTIYAQKFQGRVTMTRDTSTSTVYMELSSLRSEDTAVYYCARSSGYDFFDYWGQGTLVTVSS
VL: DIQMTQSPSSLSASVGDRVTITCRASHDINNYLNWYQQKPGKAPKLLIYDASNLETGVPSRFSGSGSGTDFTLTISSLQPEDFATYYCQQADSFPLTFGGGTKVEIKR
notes: scFv
B8: Polypeptide No. 257 (scFv, V domains shown)
VH: QVQLVQSGAEVKKPGASVKVSCKASGYTFTNYFMHWVRQAPGQGLEWMGIINPSGGSTSYAQKFQGRVTMTRDTSTSTVYMELSSLRSEDTAVYYCARAHTVYYYGMDVWGQGTMVTVSS
VL: B3 VL with D28S, L29I, D30S, R31S, Y32W, S53T, T56S, Y91S, Y96W
notes: scFv
B9: Polypeptide No. 259 (scFv, V domains shown)
VH: QVQLVQSGAEVKKPGSSVKVSCKASGYTFTSSEINWVRQAPGQGLEWMGGIHPMFGTTNYAQKFQGRVTITADESTSTAYMELSSLRSEDTAVYYCARARLMVYAPSDYWGQGTLVTVSS
VL: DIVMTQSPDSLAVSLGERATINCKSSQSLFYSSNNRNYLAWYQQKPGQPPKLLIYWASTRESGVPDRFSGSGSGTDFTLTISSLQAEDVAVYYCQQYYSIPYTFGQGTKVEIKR
notes: scFv
B10: Polypeptide No. 260 (scFv, V domains shown)
VH: QVQLVQSGAEVKKPGASVKVSCKASGYTFTNYYVHWVRQAPGQGLEWMGMINPSGGSTNYAQKFQGRVTMTRDTSTSTVYMELSSLRSEDTAVYYCARVSGWKRGWFDPWGQGTLVTVSS
VL: DIQMTQSPSSLSASVGDRVTITCRSSQSISTYLNWYQQKPGKAPKLLIYGASNLQSGVPSRFSGSGSGTDFTLTISSLQPEDFATYYCQQVISYPITFGGGTKVEIKR
notes: scFv
B11: Polypeptide No. 262 (scFv, V domains shown)
VH: QVQLVQSGAEVKKPGASVKVSCKASGFTFSDYGYYMHWVRQAPGQGLEWMGWMDPSSGHTGYAQRFQGRVTMTRDTSTSTVYMELSSLRSEDTAVYYCAKDIGWGAFDIWGQGTTVTVSS
VL: B2 VL with G25A, S28R, I29V, S30G, G31N, N32T, T52V, A57S, N93L, Y95P
notes: scFv
B12: Polypeptide No. 265 (scFv, V domains shown)
VH: QVQLVQSGAEVKKPGSSVKVSCKASGHTFTSDYMHWVRQAPGQGLEWMGRIIPIFGTADYAQKFQGRVTITADESTSTAYMELSSLRSEDTAVYYCARDDSSGIFDYWGQGTLVTVSS
VL: B6 VL with S30N, S32E, S33H, T54S, T94S, I97V, R104K, L105V
notes: scFv
B13: Polypeptide No. 269 (scFv, V domains shown)
VH: QVQLVQSGAEVKKPGASVKVSCKASGGSFSSYALHWVRQAPGQGLEWMGLINPSGGRTSYAQKFQGRVTMTRDTSTSTVYMELSSLRSEDTAVYYCARDEGYATFDYWGQGTLVTVSS
VL: B2 VL with G25A, G31S, N32S, T52V, A57T, N93Y, Y95T, G101P, E106D
notes: scFv
B14: Polypeptide No. 270 (scFv, V domains shown)
VH: QVQLVQSGAEVKKPGASVKVSCKASGGTFSSYYMHWVRQAPGQGLEWMGWISAYNGNTNYAQKLQGRVTMTRDTSTSTVYMELSSLRSEDTAVYYCAKDMGYYYDSSGGFDYWGQGTLVTVSS
VL: B7 VL with H27Q, D28S, N30S, N31S, A91T, D92Y, S93T, F94T, G100Q
notes: scFv
B15: Polypeptide No. 290 (scFv, V domains shown)
VH: B14 VH with S30T, N57K, N59D, L64F, K98R, M100Q, G109A, Y112I
VL: B7 VL with H27Q, D28S, N30S, N31S, A91T, D92Y, F94A, L96P, G100Q, V104L
notes: scFv
B16: Polypeptide No. 273 (scFv, V domains shown)
VH: QVQLVQSGAEVKKPGSSVKVSCKASGDTFNSYAVNWVRQAPGQGLEWMGGIIPSFGTPTYAWKFQGRVTITADESTSTAYMELSSLRSEDTAVYYCASVSYGSFDYWGQGTLVTVSS
VL: B6 VL with T52A, T57S, G93N, T94R, S95L, I97Y, R104K
notes: scFv
B17: Polypeptide No. 278 (scFv, V domains shown)
VH: QVQLVQSGAEVKKPGASVKVSCKASGYTFTSYYMHWVRQAPGQGLEWMGIINPSSGSTTYAQKFQGRVTMTRDTSTSTVYMELSSLRSEDTAVYYCARSVGATSAFDIWGQGTMVTVSS
VL: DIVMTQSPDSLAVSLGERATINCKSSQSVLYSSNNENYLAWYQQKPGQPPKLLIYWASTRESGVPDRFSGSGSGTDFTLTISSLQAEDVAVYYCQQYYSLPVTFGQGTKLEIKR
notes: scFv
B18: Polypeptide No. 280 (scFv, V domains shown)
VH: QVQLVQSGAEVKKPGASVKVSCKASGYTFTRYYMHWVRQAPGQGLEWMGIINPSGGSTSYAQKFQGRVTMTRDTSTSTVYMELSSLRSEDTAVYYCARGETRSYAPYGMDVWGQGTTVTVSS
VL: DIQMTQSPSSLSASVGDRVTITCQASQDISNYLNWYQQKPGKAPKLLIYQASNKDTGVPSRFSGSGSGTDFTLTISSLQPEDFATYYCQQSYSTPPTFGQGTKLEIKR
notes: scFv
B19: Polypeptide No. 283 (scFv, V domains shown)
VH: QVQLVQSGAEVKKPGASVKVSCKASGYTFTSYYMDWVRQAPGQGLEWMGRINPSSGSTTYVQKFQGRVTMTRDTSTSTVYMELSSLRSEDTAVYYCARTPSGSYSDFDYWGQGTLVTVSS
VL: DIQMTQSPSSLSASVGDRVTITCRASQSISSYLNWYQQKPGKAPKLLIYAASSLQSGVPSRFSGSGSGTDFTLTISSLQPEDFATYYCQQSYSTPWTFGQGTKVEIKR
notes: scFv
B20: Polypeptide No. 284 (scFv, V domains shown)
VH: B18 VH with R31S, I50V, S59T, G99V, E100P, T101G, R102V, Y104P, A105G, P106D
VL: B3 VL with Q27H, D28N, L29I, D30S, R31T, Y32W, T56S, Y91S, Y96P, K103R
notes: scFv
B21: Polypeptide No. 287 (scFv, V domains shown)
VH: QVQLVQSGAEVKKPGASVKVSCKASGYTFTRHYVHWVRQAPGQGLEWVGIINPSSGSASYAQKFQGRVTMTRDTSTSTVYMELSSLRSEDTAVYYCARDRLRSRFDYWGQGTLVTVSS
VL: B3 VL with D28S, L29I, D30S, R31S, Y32S, T56S, Y91S, S93T, T94I, Y96P
notes: scFv

Assays:
[1] = biological target: T1, huFLT3-T227 stably expressed on Ramos cells (human, UniProt P36888 27-993); assay: FACS on cells
T1 construct: whole, on cells; also called FLT3 WT

[2] = biological target: T2, huFLT3-M227 stably expressed on Ramos cells (human, UniProt P36888 27-993); assay: FACS on cells
T2 construct: whole, on cells; also called FLT3 Mutant

| Binder | FACS geometric mean fold change over Jurkat parental [1] [fold] | FACS geometric mean fold change over Jurkat parental [2] [fold] |
| --- | --- | --- |
| B1 | 10 to 30 | 2 to 10 |
| B2 | 2 to 10 | 2 to 10 |
| B3 | 2 to 10 | 2 to 10 |
| B4 | 2 to 10 | 2 to 10 |
| B5 | 2 to 10 | 2 to 10 |
| B6 | 10 to 30 | 2 to 10 |
| B7 | > 30 | > 30 |
| B8 | 10 to 30 | 10 to 30 |
| B9 | 10 to 30 | 10 to 30 |
| B10 | > 30 | > 30 |
| B11 | 10 to 30 | 10 to 30 |
| B12 | 10 to 30 | 10 to 30 |
| B13 | 10 to 30 | 10 to 30 |
| B14 | 10 to 30 | 10 to 30 |
| B15 | 10 to 30 | 10 to 30 |
| B16 | 10 to 30 | 10 to 30 |
| B17 | > 30 | > 30 |
| B18 | > 30 | > 30 |
| B19 | > 30 | > 30 |
| B20 | > 30 | > 30 |
| B21 | 10 to 30 | 2 to 10 |
